According to the nanobody polyreactivity screen of Harvey et al. (2022):

Assay: yeast display, Sf9 membrane polyspecificity reagent, FACS + sequencing; frameworks hold sequencing errors
Summary of the method: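 Galactose induction of a Saccharomyces cerevisiae BJ5465 synthetic nanobody display library ran 36–48 hours. The cells were then stained for 1 hour at 4 °C with 10% biotinylated, detergent-solubilized Sf9 membrane reagent, pulled down on streptavidin microbeads and FACS-sorted into low and high (top ~1%) gates on expression and reagent-binding fluorescence. Labels for polyreactivity follow the gate of origin.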

Sequence	polyreactivity (PSR sort gate)
QVQLVESGGGLVQAGGSLRLSCADSGSIQYYAMGWYRQAPGKERELVAAITWSGVSTSYADSVKGRFTISRDNAKNTVYLQMNRLKPEDTAVYYCNKDPGTLYGDLDSWGQGTQVTVSS	low polyreactivity
QVQLVESGGGLFQAGGSLGLSCAASGSTFSKYAMGWSRQAPGKERELVAAISSGGRTNYADSVKGRFTISRDNAKNTVYLHMNSLKPEDTAVYDCAALWGYWAYYYWGQGTQVTVSS	low polyreactivity
QVQLVESGGGLVQAGGSLRLSCAASGFIFTYYAMGWYRQAPGKERELVASITISGGSTYYADSVKGRFTISRDNAKNTVYLQMNSLKPEDTAVYYCNVVPWYYGYDYWGQGTQVTVSS	high polyreactivity
QVQLVESGGGLVQAGGSLRLSCAASGSTFWGYAMGWSRPAPGKERELVATITTGGGGTYYADSVKGRFTISRDNAKNTVYLQMNSLKPEDTAVYYCAARLRDGRTPRTEYDYWGQGTQVTVSS	low polyreactivity
QVQLVESGGGLVQAGGSLRLSCDASGFTFYKNAMGWYRQAPGKERELVAAISSGGSTSYADSVKGRFTISRDNAKNTVYLQMNSLKPEDTAVYFCAADRFAFYGRYRGPYYYWGQGTQVTVSS	high polyreactivity
QVQLVESGGGLVQAGGSLRLSCAAYGSTFKRNAMGCYRQAPGKEREFVAAITWSGGSTYYADSVKGRFTISRDNAKNTVYLQMNSLKPEDTAVYYCNADRFSSRHSYDYWGQGTQVTVSS	low polyreactivity
QVQLVESGGGLVQAGGSLRLSCAASGFIFGGYAMGWYRQAPGKERELVAAISRSGGSTYYADSVKGRFTISRDNGKNTLNLKMNSLKREDTAVYYCNAVPRRQGFNYWGQGTQVTVSS	high polyreactivity
QVQLVESGRGLVQAGGSLRLSCAASGSTFGWYSMGWYRQAPGKERELVTAITSSGDSTYYADSVKGRFTISRDNAKNTVYLQMNSLKPEDTAVYYCAADYADLNDYWGQGTQVTVSS	low polyreactivity
QVQLVDTGGGIVQAGGSLRLSCAASGRTFFWNAMGWYRLAPGKERELVAAITWYGGSTYYADSVKGRFTISRDNAKNTVYLQMNSLKPEDSAVYYCAAVVSDYVWRYEYWGQGTQVTVSS	low polyreactivity
QVQLVESGGGLVQAGGSLRLSCAASGSIFDVNAMGWYRQAPGKERELVAAISQRGTRTYYADSVKGRFTISRDNAKNTVYLQMNSLKPEDTAVYYCNRGGWRQYDSWGQGTQVTVSS	high polyreactivity
QVQLVESGGGLVQAGGSLRLSCAASGYIFGYNAMGWYRQAPGKERELVAAINYSGTRTYYADSVKGRFTISRDNAKNTVYLQKNSLKPEDTAVYYCNAVGQLQYVSSDDYWGQGTQVTVSS	high polyreactivity
QVQLVESGGGLVQAGGSLRLSCAASGRTFRTNDMGWYRQAPGKERELVAAISRGGGSTYYADSVKGRFTISRDNAKNTVYLQMNSLKPEDTAVYYCNALRNGIAFGAMDYWGQGTQVTVSS	high polyreactivity
QVQLVESGGGLVQAGGSLRLSCAASGITFRSYAMGWYRQAPGKDRELVAAISRTGGRTYYADSVKGRFTISRDNAKNTVYLQMNTLKAEDTAVYYCAAGGYSPYSLVGYDYWGQGTQVTVSS	high polyreactivity
QVQLLESGGGLVQAGGSLRLSCAASGSIFGLYAMGWYRQAPGKERELVAAISPRGGSTYYADSVKGRFTISRDNAKNTVYLQMNSLKPEDTAVYYCNRDYIRYALGHDYWGQGTQVTVSS	high polyreactivity
QVQLVESGGGLVQAGGSLRLSCAASGIILYGYSMGWYRQAPGKERELVAAISWDGGSTYYADSVKGRFTISRDNAKNTVYLQMISLIPEDTAVYYCNALGGSEYDYWGQGTQVTVSS	low polyreactivity
QVQLVESGGGLVQAGGSLRLSCAASGITFYRYAMGWYRQAPGKERELVAAITWSGGSTYYADSVKGRFTISRDNAKNTVYLQMNSLKPEDTAVYYCAVDYTPEDWGDDYWGQGTQVTVSS	low polyreactivity
QVQLVESGGGLVQAGGSLRLSCAASGLTYSNAMGWYRQAPGKERELVAAISWRGGRTYYADSVKGRFTISRDNAKNTVYLQMNSLKPEDTAVYYCAKYAHGHKWYGYWGQGTQVTVSS	low polyreactivity
QVQLVESGGGLVQAGGSLRLSCAASGYIIARNAMGWYRQAPGKERELVAAIRSSGGSTYYADSVKGRFTISRDNAKNTVYLQMNSLKPEDTAVYYCAARILKRPKLYDYWGQGTQVTVSS	high polyreactivity
QVQLVESGGGLVQAGGSLRLSCSATGRIFVLYDMGWYRQAPGKERELVAGISGSGGRTYYADSVKGRFTISRDNAKNTVYLQMNSLKAEDTAVYYFNALGYYWYRPYVNSNGGYWGQGTLVTVSS	high polyreactivity
QAQLVESGGGLVQAGGSLRLICAASGSTFGVNAMGWYTQAPGKERELVAIITSTTYADSVKGRFTISRDNAKNTVYLQMNSLKPEDTAVYYCAKVQERVTKGRFYLLEYYWGQGTQVTVSS	low polyreactivity
QVQLVESGGGLVQAGCSLRLSCAASGRIFTHNAMGWYRPAPGKERELVAAITSGGRTTYADSVKGRFTFSRDNAKNTVYLQMHSLNPEDTAVYYCNADTGLGSLDFDKRDYWGQGTQVTVSS	low polyreactivity
QVQLVESGGGLVQEGGILRLSCAASGLTFYGYAMGWYRQAPGKERELVAAITSGDSTYYADSVKGRFTISRDNAKNTVYLQMNSLKPEDTAVYYCAAVGGYPRYGYWGQGTQVTVSS	high polyreactivity

Sequence	polyreactivity (PSR sort gate)
QVQLVESGGGLVQAGGSLRLSCAASGIIFYRNAMGWYRQAPGKERELVAAISSRGGNTYYADSVKGRFTISRDNEKNTVYLQMNSLKPEDTAVYYCARDSYSLSRTYDSWGQGTQVTVSS	high polyreactivity
QVHLVESGGGLDQAGGSLRLSCAASGRTFKRYAMGWYRQAPGKETELVAAISWSGTSTYYADSVKGRFTISRDNAKNTVYLQMNSLKPEDTALYFCNTPHRSSSVRSYGYWGQGTQVTVSS	high polyreactivity
QVQLVETGGGLVQAGGSLRLSCAASGNTFHPYAMGWYRQSPGKERELVAAITKSVGSTYYADSVKGRFTLSRDNAKNTVYLQMNSLKPEDTAVFYCARDSLQVFYPYASDDSWGQGTQVTVSS	low polyreactivity
QVQLVESGGGLVQAGGSLSLSCAASGGIFFYYAMGWYRQAPGKEMELVASISYSGGSTYYADSVKGRFTISRDNAKNTVYLQMNSLKTEDTAVYYCAARTHYFPWPWYVWDYDSWGQGTQVTVSS	low polyreactivity
QVQLVESAGGLVQAGGILRLSCAASGFTFYFYAMGWYRQSPGKERELVAAISRSGSRTYYADSVKGRFTISRDNAKNTVYLQMNSLKPEDTAVYYCARVRPRGLYFVLHYDYWGQGTQVTVSS	high polyreactivity
QDQLVESGGGLVQAGGRLRLSCAASGFIFWLYAMGWYRQAPGKERELVASINWSGGDTYYADSVKGRFTISRDNAKNTVYLQMNSLKPEDTAVYYCAADWSNLGAYDYWGQGTQVTVSS	low polyreactivity
QVQLVESGGGLVQAGGSLRLSCAASGRTFVRYAMGWYRQAPGKEREFVAAITGSGGITYYADSVKGRFTISRDNAKNTVYLQMNSLKPEDTAVYYCAARGGFGRYWYDYWGQGTQVTVSS	high polyreactivity
QVQLVESGGGLVQAGGSLRLSCAASGSTFLQYAMGWYRQPPGKERELVAAIRFSTGTTYYADSVKGRFTISRDNAKNTVYLQMNSLKPEDTAVYYCNAVGTYRPWFHTYGYWGQGTQVTVSS	high polyreactivity
QVQLVESGGGLVQAGGSLRLSCAASGSIFADYAMGWYRQAPGKERELVAAITGSGGRTYYADSVKGRFTISRDNAKNTVYLQMNSLKPEDTAVYYCAAEGTTWYYDMDYWGQGTQVTVSS	low polyreactivity
QVQLVESGGGLVQAGGSLRLSCAASGSIFGAYAMGWYRQAPGKERELVAVISRSGGRTYYADSVKGRFTISRDNAKNTVYLQMNSLKPVDTAVYYCAADTRYVQYDYWGQGTQVTVSS	high polyreactivity
QVQLVESGRGLVQAGGSLRLSCASSGRIFRYYDMGWYRQAPGKERDFVAAITRSGAITYYADSVKGRFTISRDNAKNTVYLQMNSLKPEDTAVYYCNADFQDRTYDYDYWGQGTQVTVSS	low polyreactivity
QVQLVESGGGLVQAGGSLRLSCAASGLIFRYYSMGWYRQAPGKERELVAAISWTGGSTYYADSVKGRFTISRDNAKYTVYLQLNSLKPEDTAVYYCIAGQWRYPGLYYYWGQGTQVTVSS	high polyreactivity
QVQLVESGGGLVQAGGSLRLSCAASGSIFYNAMGWYRQAPGKERELVAAISQRGTRTYYADSVKGRFTISRDNAKKTVYLQMNSLKPEDTAVYYCNRGGWRQYDSWGQGTQVTVSS	high polyreactivity
QVQLVESGGGLVQAGGSLRLICAASGRTFRDYAMGWYRQAPGKEWELVAVISRRGSSTYYADSVKGRFTISRDNAKNTVYLQMNSLKPEDTAVYYCARVPTTWRYAYGYWGQGTQVTVSS	high polyreactivity
QVHLVESGGGLVQAGGSLRLSCAASVRTFYRNAMGWYRQAPGKERELVAAITRSGSTNYADSVKGRFTISRDNAKNTVYLQMNSLKPEDTAVYYCAAKFFRNTYSYGMDYWGQGTQVTVSS	high polyreactivity
QVQLVESGGGLVQAGGSLRLSCAASGITFTKYVMRWYRQAPGKERELVATIRWGASSTHYADSVKGRFTISRDNAKNTVYLQMNSLKPEDTAVYYCNADGWYGAVYWWFYGFDYWGQGTQVTVSS	low polyreactivity
QVQLVESGGCLVQAGGSLRFSCAASGSTFGWYAMGWYRHAPGKERELVAAITSVGSTYYADYVKGRFRISRDNAKNTVYLQMNSLKPEDTAVYYCAKRFGSGWAWFGYWGQGTQVTVSS	low polyreactivity
QVQLLESGCGLVQAGGSLRLSCMASGSILGDRMSWYRQAPGKEHELVATIYDGGITYYADSMKGRFTISRDNAKNTVYLQMNSLRPEDTAVYYCGASFEGYRYHVYCGQGTQVTVSS	low polyreactivity
QVQLVESGGGLVQAGGSLRLSCAASGRIFVHNAMGWYRQAPRKERELVAAISWSGGSTYYADSVKGRFTISRDNAKNTVYLQMNSLKPEDTAVYYCNALDPLYFRYDYWGQGTQVTVSS	low polyreactivity
QVQLVESWGALVQAGGSLRLSCAPSGSSKLMLWEGIDRRLGNKGSWLPLIVLVVLRNYADSVKGRFTISRDNAKNTLYLQMNSLKPDDTAVYYCAATPIGSGGWGDYWGQGTQVTLSS	low polyreactivity
QVQLVESGGGLVQAGGSLRLSCAASGRIFVRYAMGWYRQAPGKERELVAAISYRGGSTYYADSVKGRFTISRDNAKNTVYLLMNSLKPEDTAVYYCAARNSYGNWSYYYWGQGTQVTLSS	high polyreactivity
